Four molecules from patent US20230265192A1 (GIGAGEN, published 2023) can be followed below.

Numbering of substitutions follows the chain as printed.

B1: antibody A9 (L9H9) (antibody, V domains shown)
VH: QVQLVESGGGVVQPGRSLRLSCAASGFTFSSHGMHWVRQAPGKGLEWVAVIWYDGSNKHYADSVKGRFTISRDNSKNTLYLQMNSLRAEDTAVYYCARGDILTGYYGYWGQGTLVTVSS
VL: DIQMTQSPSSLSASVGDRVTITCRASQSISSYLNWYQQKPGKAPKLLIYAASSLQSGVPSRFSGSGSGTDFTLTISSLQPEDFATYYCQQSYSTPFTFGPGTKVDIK
notes: also called aCTLA-4.24
B2: antibody A3 (L3H3) (antibody, V domains shown)
VH: B1 VH with A23I, H32Y, I51N, D100G, I101V, L102W, T103G, G104P, Y106F, G107D
VL: not shown
notes: also called aCTLA-4.2
B3: antibody A10 (L10H10) (antibody, V domains shown)
VH: QVQLVESGGGVVQPGRSLRLSCVASGFTLSSYGMHWVRQAPGKGLEWVAVIWYDGSNKHYADSVKGRFTISRDNSKNTLSLQMNSLRAEDTAVYYCARGGQLGPFDYWGQGTLVTVSS
VL: not shown
notes: also called aCTLA-4.22
B4: antibody A8 (L8H8) (antibody, V domains shown)
VH: B3 VH with V23A, L29F, S31R, S56R, H59Y, S80Y, V93L, Y95S, G99A, Q101E
VL: EIVLTQSPGTLSLSPGERATLSCRASQSVSYLAWYQQKPGQAPRLLIYGASSRATGIPDRFSGSGSGTDFTLTISRLEPEDFAVYYCQQYGSSPWTFGQGTKVEIK
notes: also called aCTLA-4.1

Sequence of mouse CTLA-4 (P09793 36-161 limits assumed): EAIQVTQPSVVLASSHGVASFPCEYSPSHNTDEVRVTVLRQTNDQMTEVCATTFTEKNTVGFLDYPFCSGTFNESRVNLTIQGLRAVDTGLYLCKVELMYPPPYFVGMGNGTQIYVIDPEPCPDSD
T2 sequence (P16410 36-223 limits assumed): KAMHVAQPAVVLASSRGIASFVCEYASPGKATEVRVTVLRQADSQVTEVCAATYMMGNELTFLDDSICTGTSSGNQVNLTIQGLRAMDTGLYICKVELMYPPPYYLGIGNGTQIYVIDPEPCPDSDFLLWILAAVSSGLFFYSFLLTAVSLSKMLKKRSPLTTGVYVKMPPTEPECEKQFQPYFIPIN

For the first assay, the target named is T1, His-tagged human CTLA-4 (CT4-H5229; Acro Biosystems) (human, UniProt P16410 36-161).
T1 construct: bought soluble protein; also called soluble human CTLA-4; recombinant human CTLA-4; not shown: His tag
T1 sequence (P16410 36-161 limits assumed): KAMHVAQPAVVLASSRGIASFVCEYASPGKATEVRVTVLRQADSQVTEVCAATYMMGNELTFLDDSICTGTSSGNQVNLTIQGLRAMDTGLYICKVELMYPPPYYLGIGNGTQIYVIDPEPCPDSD
Briefly: SPR (Carterra). Here is the method:
(§1) Then, goat anti-Human IgG Fc (Southern Biotech 2047-01) was coupled for 10 minutes at […] in 10 mM Sodim Acetate pH 4.5 (Carterra Inc.). The surface was then deactivated with 1 M ethanolamine pH 8.5 (Carterra Inc.). Running buffer used for the lawn immobilization was HBS-EPC (10 mM HEPES, 150 mM NaCl, 3 mM EDTA, 0.05% Tween 20, pH 7.4; Teknova).
(§2) The sensor chip was then transferred to a continuous flow microspotter (CFM; Carterra Inc.) for array capturing. The mAb supernatants were diluted 50-fold ([…] final concentration) into HBS-EPC with 1 mg/mL BSA. The samples were each captured twice with 15-minute and 4-minute capture steps on the first and second prints, respectively, to create multiple densities, using a […] flow rate. The running buffer in the CFM was also HBS-EPC.
(§3) Next, the sensor chip was loaded onto an SPR reader (MX-96 system; Ibis Technologies) for the kinetic analysis. CTLA-4 was injected at five increasing concentrations in a four-fold dilution series with concentrations of 1.95, 7.8, 31.25, 125, and 500 nM in running buffer (HBS-EPC with 1.0 mg/mL BSA). CTLA-4 injections were 5 minutes with a 15-minute dissociation at […] in a non-regenerative kinetic series. An injection of the goat anti-Human IgG Fc capture antibody at […] was injected at the end of the series to verify the capture level of each mAb. Binding data was double referenced by subtracting an interspot surface and a blank injection and analyzed for ka (on-rate), kd (off-rate), and KD (affinity) using the Kinetic Interaction Tool software (Carterra Inc.).
By Kd is commonly meant the equilibrium constant for the complex coming apart. Usually koff stands for the rate constant with which the complex falls apart. High values mean fast dissociation, low ones slow dissociation. Broadly, the kon is the second-order rate constant of association. High values mean fast association, low ones slow association. Turning to B1, the dissociation constant Kd was found to be 6.8 nM, the koff is 0.00043 s⁻¹ and the kon was found to be 63000 M⁻¹ s⁻¹.
The like results for B2 were, in that order, 1.5 nM, 0.00028 s⁻¹ and 190000 M⁻¹ s⁻¹.
For the molecule B3, the affinity, expressed as Kd, was 22 nM; the koff is 0.00051 s⁻¹; the kon amounted to 23000 M⁻¹ s⁻¹.
The like results for B4 were, in that order, 4.6 nM, 0.00039 s⁻¹ and 85000 M⁻¹ s⁻¹.

A further assay addresses T2, human CTLA-4 expressed on the cell surface (human, UniProt P16410 36-223). Description: cell-based or functional assay.
Consider B1, for which the “Promega assay % inhibition” value was 60.8% and the “Promega assay antagonist (EC50, ug/mL)” value is 0.19 µg/mL.
As for B2, the “Promega assay % inhibition” value turned out to be 49.8% and the “Promega assay antagonist (EC50, ug/mL)” value amounted to 0.18 µg/mL.
For B3, the “Promega assay % inhibition” value amounted to 24.5% and the “Promega assay antagonist (EC50, ug/mL)” value turned out to be 0.26 µg/mL.
B4: the “Promega assay % inhibition” value turned out to be 54.7% and the “Promega assay antagonist (EC50, ug/mL)” value turned out to be 0.15 µg/mL.

For another assay, the target named is T2, human CTLA-4 expressed on the cell …. Description: cell-based or functional assay. This is another data set of the same source.
In the case of B1, the “Cell-based blocking activity EC50” value came out at 0.19 mg/L and the “Cell-based blocking activity max signal (RLU)” value was 333 RLU.
B2: the “Cell-based blocking activity EC50” value came out at 0.18 mg/L and the “Cell-based blocking activity max signal (RLU)” value stood at 273 RLU.
In the case of B3, the “Cell-based blocking activity EC50” value was found to be 0.26 mg/L and the “Cell-based blocking activity max signal (RLU)” value came out at 134 RLU.
In the same order, the values of B4 are 0.1 mg/L and 349 RLU.

A further assay has as its target T1, His-tagged human CTLA-4 (CT4-H5229; …). Briefly: SPR (Carterra), soluble human CTLA-4.
The molecule B1 showed a Kd of 6.8 nM, a koff of 0.00043 s⁻¹ and a kon of 63000 M⁻¹ s⁻¹.
Molecule B2 had a dissociation constant (Kd) of 1.5 nM, a koff of 0.00028 s⁻¹ and a kon of 190000 M⁻¹ s⁻¹.
For the molecule B3, the Kd stood at 22 nM, the koff amounted to 0.00051 s⁻¹ and the on-rate constant (kon) was determined as 23000 M⁻¹ s⁻¹.
Take B4: the Kd was determined as 4.6 nM, the koff was 0.00039 s⁻¹ and the kon worked out at 85000 M⁻¹ s⁻¹.

The target of a further assay is T3, CD27 on CHO cells (UniProt P26842 20-260, limits assumed).
T3 construct: whole, on cells; also called CD27+ CHO cells; irrelevant antigen (CD27)
T3 sequence (P26842 20-260 limits assumed): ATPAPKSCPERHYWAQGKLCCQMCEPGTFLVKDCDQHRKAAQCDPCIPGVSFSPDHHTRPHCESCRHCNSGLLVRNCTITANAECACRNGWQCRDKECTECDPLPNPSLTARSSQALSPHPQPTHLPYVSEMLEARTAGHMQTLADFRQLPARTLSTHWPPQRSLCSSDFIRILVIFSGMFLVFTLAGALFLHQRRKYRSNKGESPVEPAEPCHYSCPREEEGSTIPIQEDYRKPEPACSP
Description: flow cytometry, mixed CTLA-4+ and CD27+ CHO cells. How it is done: To determine if the CTLA-4 mAbs bound the appropriate antigen expressed on the surface of mammalian cells, CHO cell lines stably expressing human CTLA-4 or an irrelevant antigen (CD27) were generated. Cells (0.5×10⁶ each cell line) were combined and washed with MACS buffer (Dulbecco's Phosphate Buffered Saline [DPBS], with 0.5% bovine serum albumin [BSA], and 2 mM ethylenediaminetetraacetic acid [EDTA]). The cells were incubated with 10 μg/mL anti-CTLA-4 for 30 min at 4° C., then excess, unbound mAbs were removed by washing twice with MACS buffer. The cells were then stained with PE-conjugated anti-Human IgG Fc antibody (clone M1310G05, BioLegend 410720, San Diego, Calif., USA) to detect bound anti-CTLA-4 and with fluorescein isothiocyanate (FITC)-conjugated anti-CD27 (clone 0323, BioLegend 302806, San Diego, Calif., USA) to distinguish the cells expressing the irrelevant antigen. Cells were washed twice with MACS buffer, fixed with 4% paraformaldehyde fixation buffer (BioLegend 420801, San Diego, Calif., USA) for 20 minutes at room temperature and washed twice more with MACS buffer. […] Binding of mAbs to CTLA-4 on the cell surface was determined using LSR II (BD Biosciences, San Jose, Calif., USA) or CytoFLEX LX (Beckman Coulter, Brea. Calif., USA) flow cytometers and analyzed using FlowJo (v10.6.1, BD Biosciences, San Jose, Calif., USA).
In general terms: In flow cytometry, cells or beads pass a laser one at a time.
In the case of B1, the binding result is reported as “no binding (tested: 10 µg/mL)”.
In the case of B2, the binding result is “no binding (tested: 10 µg/mL)”.
In the case of B3, the binding result is on record as “no binding (tested: 10 µg/mL)”.
For the molecule B4, the binding result is on record as “no binding (tested: 10 µg/mL)”.

The next assay deals with T1, His-tagged human CTLA-4 (CT4-H5229; …). Description: SPR (Carterra). The source holds these as a separate data set. Here is the method:
as §1, §2, §3
As to B1, the dissociation constant (Kd) is 6.8 nM.
Take B2: the Kd was found to be 1.5 nM.
B3: binding was put at a Kd of 22 nM.
B4 returned a Kd of 4.6 nM.

The target in another assay is T2, human CTLA-4 expressed on the cell …. Description: flow cytometry, 10 µg/mL mAb, geometric MFI. Here is the method:
(§4) Table 23. In vitro characterization of scFvs reformatted as full-length antibodies. kon, koff, and KD of the indicated CTLA-4 mAbs for soluble human CTLA-4 was determined by SPR (Carterra). Geometric MFI of the indicated CTLA-4 mAbs bound to CTLA-4⁺ or CD27⁺ CHO cells as detected by a secondary human IgG antibody and flow cytometry. Affinity (KD) of the indicated CTLA-4 mAbs for soluble cynomolgus CTLA-4 was determined by a single antigen concentration BLI measurement (Octet). […] Due to constraints on sample size in each Promega bioassay kit, this set of aCTLA-4 mAbs was analyzed using multiple plates (plate letters correspond to Plate A-D in FIG. 20D).
(§5) To determine if the CTLA-4 mAbs bound the appropriate antigen expressed on the surface of mammalian cells, CHO cell lines stably expressing human CTLA-4 or an irrelevant antigen (CD27) were generated. Cells (0.5×10⁶ each cell line) were combined and washed with MACS buffer (Dulbecco's Phosphate Buffered Saline [DPBS], with 0.5% bovine serum albumin [BSA], and 2 mM ethylenediaminetetraacetic acid [EDTA]). The cells were incubated with 10 μg/mL anti-CTLA-4 for 30 min at 4° C., then excess, unbound mAbs were removed by washing twice with MACS buffer. The cells were then stained with PE-conjugated anti-Human IgG Fc antibody (clone M1310G05, BioLegend 410720, San Diego, Calif., USA) to detect bound anti-CTLA-4 and with fluorescein isothiocyanate (FITC)-conjugated anti-CD27 (clone 0323, BioLegend 302806, San Diego, Calif., USA) to distinguish the cells expressing the irrelevant antigen. Cells were washed twice with MACS buffer, fixed with 4% paraformaldehyde fixation buffer (BioLegend 420801, San Diego, Calif., USA) for 20 minutes at room temperature and washed twice more with MACS buffer.
Take B1: the “MFI of CTLA-4+ CHO cells” value was 934.
Consider B2, for which the “MFI of CTLA-4+ CHO cells” value was determined as 1050.
Turning to B3, the “MFI of CTLA-4+ CHO cells” value is 641.
Take B4: the “MFI of CTLA-4+ CHO cells” value turned out to be 1010.

Another assay addresses T3, CD27 on CHO cells. Briefly: flow cytometry, 10 µg/mL mAb, geometric MFI. How it is done:
as §4, §5
In the case of B1, the “MFI of CD27+ CHO cells” value turned out to be 26.
The same measure, in the same setting: the value for B2 was 18.2.
Consider B3, for which the “MFI of CD27+ CHO cells” value turned out to be 15.2.
Still for that read-out and setting: then B4, with 18.6.

The next assay deals with T4, His-tagged cynomolgus CTLA-4 (CT4-C5227; Acro Biosystems) (cynomolgus, UniProt G7PL88 36-161).
T4 construct: also called soluble cynomolgus CTLA-4; cyno CTLA-4
T4 sequence (G7PL88 entry or part of it limits assumed, form in doubt): as the sequence (P16410 36-161 limits assumed) above, with S14N, I18T, L106M counted along it
Briefly: BLI (Octet). How it is done: (§6) The binding specificity and affinity of each full-length antibody towards CTLA-4 were determined using biolayer interferometry (BLI) and/or surface plasmon resonance (SPR). Anti-cyno CTLA-4 and anti-mouse CTLA-4 affinities were tested using ForteBio (BLI). Anti-human CTLA-4 affinities were measured using Carterra (SPR).
(§7) For BLI, antibodies were loaded onto an Anti-Human IgG Fc (AHC) biosensor using the Octet Red96 system (ForteBio). Loaded biosensors were dipped into antigen dilutions beginning at 300 nM, with 6 serial dilutions at 1:3. Kinetic analysis was performed using a 1:1 binding model and global fitting.
(In general: Biolayer interferometry detects binding as a change in optical thickness at a sensor tip.)
On to B1, for which the Kd is 0.92 nM.
B2 yielded a Kd of 1.2 nM.
B3: binding was put at a Kd of 3.1 nM. Compared with the last molecule, the Kd is about 2.6-fold higher.
In turn, B4 yielded a Kd of 1 nM.

A further assay addresses mouse CTLA-4 (mouse, UniProt P09793 36-161, limits assumed). Description: BLI (Octet). Here is the method: as §6, §7
Consider B1, for which the binding result is given as “no binding (tested: 300 nM)”.
With B2, the binding result is recorded as “no binding (tested: 300 nM)”.
As to B3, the binding result was “no binding (tested: 300 nM)”.
Consider B4, for which the binding result is listed as “no binding (tested: 300 nM)”.

Another assay deals with T4, His-tagged cynomolgus CTLA-4 …. Briefly: BLI (Octet), single antigen concentration. How it is done:
as §4
Antibodies were loaded at 5 μg/mL onto Protein A biosensors that were dipped into 80 nM antigen, and kinetic constants were calculated using a monovalent model.
The molecule B1 had a Kd of 0.9 nM.
Consider B2, for which the dissociation constant Kd was determined as 1.2 nM. This Kd and that of the molecule before are within 1.5-fold of each other.
In turn, B3 had a Kd of 3.1 nM.
In turn, B4 returned a Kd of 1 nM.
